Reference: the supplement of paper PMC9170038

Tested on: MS2 coat protein
Assay: apparent KD of MS2 coat protein; designed switch direction (-1 OFF switch, 1 ON switch): 1; higher = weaker reporter binding
Summary of the method: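 For each design, the apparent KD is the median over clusters of curves fitted to normalised cluster fluorescence. Clusters held RNA switches with common flanks, transcribed on Illumina chips by stalled E. coli RNA polymerase. These were titrated with SNAP-549-labelled MS2 coat protein, doubling from 0.7 or 1.5 nM to 3 µM, without input, with 200 uM small-molecule ligand, or with an oligonucleotide input.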

[1] = input ligand: microRNA oligo, concentration not stated
[2] = Eterna round: R95, input ligand: FMN 200 uM
[3] = Eterna round: R95, input ligand: microRNA oligo, concentration not stated
[4] = Eterna round: R95, input ligand: none

Row | Sequence | apparent KD of MS2 coat protein (input ligand: FMN 200 uM) [nM] | apparent KD of MS2 coat protein [1] [nM] | apparent KD of MS2 coat protein (input ligand: none) [nM] | apparent KD of MS2 coat protein [2] [nM] | apparent KD of MS2 coat protein [3] [nM] | apparent KD of MS2 coat protein [4] [nM]
1 | GUUACAUGAGGAUCACCCAUGUAUGUGUGGGAGUAAGUGUCUUAGGAUAUCUAUUAUUUAAUUUGAGAGAAGGAAGAUUGUUGU [JMF's solution 28] (Eterna round: R96, puzzle: Same State NG 3) | 107 | 97.7 | 107 |  |  | 
2 | AUAUUUAAUGCAGGAUAUGAUUAACAUGAGGAUCACCCAUGUGGUGUUGUGAGUAAGGAGAGUGAUCAGAAGGGCAUUUUUUUU [JMF's solution 100] (Eterna round: R96, puzzle: Same State NG 2) | 821 | 322 | 467 |  |  | 
3 | UUUAUAUUCAGAGGAUAUUAAAGUAGUAUAACAUAAGAAGGCUGUUUGUUUUGUAAAGUAAUUCUACAUGAGGAUCACCCAUGU [JR_SSNG1_Sub085] (Eterna round: R96, puzzle: Same State NG 1) |  | 15.8 |  |  |  | 
4 | GCCGUAAACAUGAGGAUCACCCAUGUAAACGCGAGAGUGGAUGAGGAUAUCGAUGGGUUUCCCGUCGAGAAGGCGUGGGUCGGC [JL SSNG3 3.99] (Eterna round: R96, puzzle: Same State NG 3) | 36.2 | 31.8 | 46.1 |  |  | 
5 | AAGAAGACGAACAAGGAUAUGUCAAAGGAAACAUGAGGAUCACCCAUGUAGAGAUUGGAAAAGAAACAGAAGGUGUACAGAGAGA [JR_SS2_Sub006] (puzzle: Same State 2) |  |  |  | 18.7 | 33.2 | 24.5
6 | GAGCCAGUCCGAGGAUAUUCAUAUUACAUGAGGAUCACCCAUGUAGGCUCAGAAAAGGAGCCUUGGGAGAAGGCGGACUGGCUC [Xeonanisa<<3] (Eterna round: R96, puzzle: Same State NG 2) | 13.4 | 153 | 217 |  |  | 
7 | UAUUAGAUCCGAGGAUAUCCUUUUUUCUUACAUGAGGAUCACCCAUGUAAAGGGAUUGAGUUGUAGGAGAAGGCGGAUUUAGUU [JR_SSNG2_Sub058] (Eterna round: R96, puzzle: Same State NG 2) |  | 24.1 |  |  |  | 
8 | GGAGCCGGCCUAGGAUAUUUCAUUAAUAAACAUGAGGAUCACCCAUGUAGGCCAGAAGGCCUUGGGAAGAAGGAGGUCGGCUCC [Loop Effect - U24,U27] (Eterna round: R96, puzzle: Same State NG 2) | 21.2 | 24.5 | 37.7 |  |  | 
9 | GCAGAACAUGAGGAUCACCCAUGUCUCAAAUAUUGAGGAUAUGGACACGGUAUAUCCGAACCAGAAGGCAAACUGC [SS1 Teenbexe 19] (puzzle: Same State 1) |  |  |  | 55.8 | 74.5 | 64
10 | UUGAAGAAUUAAGGAUAUUGAGUACAUAUGUAAAACAUGAGGAUCACCCAUGUGGGUUGCGGUAUCGAGAAGGUAAAUUAAUAG [Mat - same State NG 2 - JL mod - D70] (Eterna round: R96, puzzle: Same State NG 2) | 87 | 67.6 | 96.3 |  |  | 
11 | GAGUGGAGGAGAGGAUAUACAUUGAUAAUCACUGUAGAAGGUUCUAACAUGAGGAUCACCCAUGUAGGACUAUUCCUGAGAGUU [Parity 52 - Jieux - Same State NG 1] (Eterna round: R96, puzzle: Same State NG 1) | 8.87 | 10.1 | 12.5 |  |  | 
12 | UUAACAUGACGAGGAUAUCAUUUAUAUCUUGAUUGAGAAGGCGUUCUUUUUUUUACCUAACAUGAGGAUCACCCAUGUGACAGU [JR_SSNG1_Sub051] (Eterna round: R96, puzzle: Same State NG 1) | 12.4 | 13.7 | 17.6 |  |  | 
13 | GGAGCCGAUACUGAGGAUAUUCAUAUUAAAACAUGAGGAUCACCCAUGUAGGCCAGAAGGCCUUGGGAGAAGGCAGAUCGGCUCC [Biseusra - 4] (puzzle: Same State 2) |  |  |  | 19.5 | 301 | 450
14 | GUAGCAUACCGAGGAUAUUCAUUACAUGAGGAUCACCCAUGUUAGGCCAGCAUUAGCUGGCCUUGGGAGAAGGCGGAAUGCUAC [Xeonanis - 20 Mod53] (Eterna round: R96, puzzle: Same State NG 2) | 14 | 29.1 | 37.8 |  |  | 
15 | ACAUGAGAGUGAGGAUAUAUAGUACCUACAUGUGACAUGAGGAUCACCCAUGUGGUAAGUAUGACAUAGAAGGCACAGAUAUGU [Equivalance 100 - Jieux - Same State NG 2] (Eterna round: R96, puzzle: Same State NG 2) | 37.9 | 71.4 | 84.2 |  |  | 
16 | AGGACGAGCACAGGAUAUCCACGGAAAAGACGCGGAGAAGGGUGAAGUCAUGGAAAGAAAAGACAUGAGGAUCACCCAUGUAAA [Dibema] (Eterna round: R96, puzzle: Same State NG 1) | 26.2 | 20.5 | 28.4 |  |  | 

Row | Sequence | apparent KD of MS2 coat protein (input ligand: FMN 200 uM) [nM] | apparent KD of MS2 coat protein [1] [nM] | apparent KD of MS2 coat protein (input ligand: none) [nM] | apparent KD of MS2 coat protein [2] [nM] | apparent KD of MS2 coat protein [3] [nM] | apparent KD of MS2 coat protein [4] [nM]
17 | GCCAACGCAUGAGGAUAUGGCACCUUAUUGGUGCCAGAAGGUAUGUGUAUUCACAUGAGGAUCACCCAUGUAUUAUAGUUGGCA [Fiskers NG1ss - 17] (Eterna round: R96, puzzle: Same State NG 1) | 53.7 | 146 | 183 |  |  | 
18 | AGUUGAAAUACAGGAUAUAUAUUAUUUUUAUUUAUAGAAGGGUAAUCACAUGAGGAUCACCCAUGUAUAUACGAGGAAGAAGAG [JMF's solution 1] (Eterna round: R96, puzzle: Same State NG 1) |  | 182 |  |  |  | 
19 | GGAGCCGGCCUAGGAUAUUUCAUAUAAAUACAUGAGGAUCACCCAUGUAGGCCAGAAGGCCUUGGGAAGAAGGAGGUCGGCUCC [Loop Effect - U25,U29] (Eterna round: R96, puzzle: Same State NG 2) | 13 | 20.4 | 31.5 |  |  | 
20 | AAUUUAAUACAUGAGGAUCACCCAUGUAAAUUAAUUAAGAUCUAGGAUAUCAGCUCGAAUAGAGCUGAGAAGGAGAUCACAUGU [SSNG3/19-B1] (Eterna round: R96, puzzle: Same State NG 3) |  | 13.8 |  |  |  | 
21 | AACAAUCUAUCUGAGGAUAUCAUUAAAUAAACAUGAGGAUCACCCAUGUGCAGGAAAACUGCAUAUGAGAAGGCAGAUAGAUUGA [salish99_ss2_r3_029] (puzzle: Same State 2) |  |  |  | 12.3 | 46.2 | 55.2
22 | CCAACGUACAAUUUAGAUCUACAUGAGGAUCACCCAUGUACGGAGGAUAUCAGCUCGAAUAGAGCUGAGAAGGCCGAAUUAAUU [SSNG3/2-A1] (Eterna round: R96, puzzle: Same State NG 3) |  | 248 |  |  |  | 
23 | UUUAGGAGUCAAGGAUAUGCUACCGUUUCGGUAGCAGAAGGUGAUCACAUGAGGAUCACCCAUGUAUGCAUGCGUGAGCGUGCU [JL SSNG1 3.62] (Eterna round: R96, puzzle: Same State NG 1) |  | 24.1 |  |  |  | 
24 | GGUGCCAAAUAAGCCUACAUGAGGAUCACCCAUGUAUGUAGGCAGGAUAUCGUUUGCAAAGCAAACGAGAAGGGCCUAGGCACC [Mat - Same State NG 3 - JL Mod - D62] (Eterna round: R96, puzzle: Same State NG 3) | 19.1 | 18.5 | 35.2 |  |  | 
25 | CAGUGCUGUUGAGAGGAUAUGCGGCGACGGACAUGAGGAUCACCCAUGUUAGCGACAGCGUUGCGGCAGAAGGCUCUGCCCGCUA [Soteed Omei mod 51] (puzzle: Same State 2) |  |  |  |  | 39.3 | 
26 | CCAAAUUGAAUCCACAUGAGGAUCACCCAUGUCCAACCGGUCUAGGAUAUCACAGCAAGCGCGUGUGAGAAGGAGAAAACAAGC [Eternabot solution 34] (Eterna round: R96, puzzle: Same State NG 3) | 42.1 | 21 | 43.4 |  |  | 
27 | AGUCCUGAAAAGAAAAUACAGAGACAUGUACAUGAGGAUCACCCAUGUCAUGUACAAGUUCUAUGCUCGUCAUAUAA [Sensorship 20 - Jieux - Sensor for hsa-mir-208a] (puzzle: Sensor for hsa-mir-208a) |  |  |  | 22.4 | 15.8 | 21
28 | GGAGCCGGUACUGAGGAUAUUCGUAUUAAAACAUGAGGAUCACCCAUGUAGGCCAGAAGGCCUUGGGAGAAGGCAGACCAGCUCG [Atgexeedri - 5] (puzzle: Same State 2) |  |  |  | 14.3 | 26 | 40.5
29 | GUGGAGGGUUGAGGAUAUUGAUUGCAUAUGUUUAACAUGAGGAUCACCCAUGUGGGUUGCGGUUUCGAGAAGGUAGGUUGCUGG [salish99_SSNG2_r04_042] (Eterna round: R96, puzzle: Same State NG 2) | 80.8 | 59.4 | 72.2 |  |  | 
30 | ACAGCCGGCACUGAGGAUAUUCAUAUUAAAACAUGAGGAUCACCCAUGUAGGCCAGAAGGCCUUGGGAGAAGGCAGGUCGGCUGA [Mat - Same State 2 - Mod of UCT - D64] (puzzle: Same State 2) |  |  |  | 18.8 | 229 | 391
31 | AAGCUCGUGUGAGGAUAUGCCGCCGUUUCGGCUGCAGAAGGUGCUACGUUACAUGAGGAUCACCCAUGUCUCUGUUGUUUCGUG [salish99_SSNG1_r04_953] (Eterna round: R96, puzzle: Same State NG 1) |  | 18.5 |  |  |  | 
